Measurements from patent US5874287.

Biological target: G protein alpha subunit of human erythrocyte membranes (human) (UniProt P63092)

Q: With “rCTXA1/T1 (CTXA1 truncated at Trp179) (enzyme)” as the substance, how does the SPECIFIC ACTIVITY FOR HEM G. PROTEIN (ADP-ribosyltransferase, relative) read?
A: < 0.01
